Test results as given in US20090226466A1.

Assays:
[1] = molecular target: full-length murine NKG2D on cells (murine) (UniProt O54709); experiment: flow cytometry on stable mNKG2D transfectant HEK293 cells, isotype control
[2] = molecular target: human NKG2D on CHO transfectant cells (human) (UniProt P26718); experiment: flow cytometry on human NKG2D-CHO transfectant cells
[3] = molecular target: full-length murine NKG2D on cells (murine) (UniProt O54709); experiment: cell-based or functional assay
[4] = molecular target: full-length murine NKG2D on cells (murine) (UniProt O54709); experiment: flow cytometry on stable mNKG2D transfectant HEK293 cells
[5] = molecular target: soluble form of murine NKG2D representing residues 88-232, N'-FLAG tagged (murine) (UniProt O54709); experiment: ELISA, mNKG2D immobilized on plate, goat anti-mouse F(ab')2-HRP detection
[6] = molecular target: full-length murine NKG2D on cells (murine) (UniProt O54709); experiment: flow cytometry on NK cells from mouse splenocytes, biotinylated antibody and streptavidin
[7] = molecular target: murine FcγRIII on cells (murine) (UniProt P08508); experiment: cell-based or functional assay
Sequence of UniProt P08508 (P08508 31-261): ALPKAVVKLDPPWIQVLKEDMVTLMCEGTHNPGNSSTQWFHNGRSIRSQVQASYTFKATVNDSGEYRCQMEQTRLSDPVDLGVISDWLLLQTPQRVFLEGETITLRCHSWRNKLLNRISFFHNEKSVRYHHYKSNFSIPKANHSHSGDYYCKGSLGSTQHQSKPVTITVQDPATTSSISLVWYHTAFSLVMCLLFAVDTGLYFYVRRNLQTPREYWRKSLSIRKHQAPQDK

Sequence of UniProt P26718 (P26718 whole entry): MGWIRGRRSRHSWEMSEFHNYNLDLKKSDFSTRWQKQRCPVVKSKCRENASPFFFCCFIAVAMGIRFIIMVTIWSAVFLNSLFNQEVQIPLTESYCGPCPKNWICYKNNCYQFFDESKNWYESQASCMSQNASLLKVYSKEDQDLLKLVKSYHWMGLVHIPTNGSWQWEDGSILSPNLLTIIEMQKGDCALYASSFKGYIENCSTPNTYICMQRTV

Row | Substance | MFI [1] [MFI] | MFI [2] [MFI] | MFI [4] [MFI] | EC50 [5] [nM] | MFI [6] [MFI] | killing of BT474 cells by murine DX5+ NK cells (lactate dehydrogenase release), E:T ratio of 50:1, 6.7 nM antibody [3] [%] | killing of BT474 cells by splenic NK cells of murine FcγRIII knockout mice, E:T ratio 20:1 [3] [%] | killing of BT474 cells by murine DX5+ NK cells (lactate dehydrogenase release), E:T ratio of 50:1, 6.7 nM antibody [7] [%]
1 | Anti-HER2*-MicB fusion antibody (D265A + N297A) (from UniProt Q29980 16-297) |  | 61.7 | 11 | 0.3 |  | 15 |  | 
2 | Anti-HER2-H60 fusion antibody |  |  | 100 | 0.2 | 48.9 |  | 10 | 
3 | Anti-HER2 (4D5 mIgG2a) (antibody) |  |  |  |  |  |  |  | 15

Further lines, with some results ahead:

Row | MFI [1] [MFI] | MFI [2] [MFI] | MFI [4] [MFI] | EC50 [5] [nM] | MFI [6] [MFI] | Substance | killing of BT474 cells by murine DX5+ NK cells (lactate dehydrogenase release), E:T ratio of 50:1, 6.7 nM antibody [3] [%] | killing of BT474 cells by splenic NK cells of murine FcγRIII knockout mice, E:T ratio 20:1 [3] [%] | killing of BT474 cells by murine DX5+ NK cells (lactate dehydrogenase release), E:T ratio of 50:1, 6.7 nM antibody [7] [%]
4 | 4 |  |  |  |  | mouse IgG2a control antibody |  |  | 
5 |  | 61.7 | 11 | 0.3 |  | Anti-HER2-MicB fusion antibody (from UniProt Q29980 16-297) |  | 10 | 
